Measured values from patent US20030236190A1 (published 2003).
Positions of bridges follow the written chain, without caps; N, C: chain ends. Non-standard residues stand in square brackets, D forms with d. No end group written: not given here. Tyr(3-I) = N[C@@H](Cc1ccc(O)c(I)c1)C(=O)O

B1: X2CA-2-B4-IGFR (peptide)
peptide: CCLLCRFQQNFYDWFVCQGISRLRPL
modifications: disulfide (positions not given here); also: disulfide among the four cysteines, pairing not given here
B2: S591 (peptide)
peptide: LEEEWAQIECEVWGRGCSGSLDESF[Tyr(3-I)]DWFERQLG
modifications: not fully specified (bridges); printed as LEEEWAQIECEVWGRGCSGSLDESF-IodoTyr-DWFERQLG; cysteine pairing not given here

How the values were obtained:
[1] = biological target: T1, Soluble IGF-1R (R&D Systems, Cat. # 391-GR/CF); recombinant human IGF-1R (human, UniProt P08069 31-935); assay: phage ELISA vs milk
T1 construct: extracellular domain; Eu3+-labelled in the TR-FRET assays; also called sIGF-1R; rhIGF-1R

[2] = biological target: T2, Insulin receptor prepared according to Bass et al., 1996: soluble human insulin receptor-immunoglobulin heavy … (human, UniProt P06213 28-956); assay: phage ELISA vs milk
T2 construct: extracellular domain; Eu3+-labelled in TR-FRET; also called IR; sIR-Fc; not shown: immunoglobulin heavy chain constant domains that replace the transmembrane and i

[3] = biological target: T1, Soluble IGF-1R (R&D Systems, Cat. # …); assay: phage ELISA, vs IR
[4] = biological target: T2, Insulin receptor prepared according to …; assay: phage ELISA, vs IGF-1R
[5] = biological target: human insulin receptor (HIR) (human, UniProt P06213 28-1382, limits assumed); assay: 125I-insulin competition, solubilised HIR

| Binder | Ratio over Background [1] [fold] | Ratio over Background [2] [fold] | IGF-1R/IR Comparison [3] [ratio] | IR/IGF-1R Comparison [4] [ratio] | Kd [5] [pM] |
| --- | --- | --- | --- | --- | --- |
| RAGSSDFHEDFYEWFVRQVSLSLKGK [H2CA-2-B9-IGFR] | 7 | 1.7 | 4.2 | 0.2 |  |
| SLEEEWAQIQHELWPVEKGESFYDWFERQL [S605] |  |  |  |  | 94 |
| SLEEEWAQIECEVWGRGCPSY [S592] |  |  |  |  | 1700 |
| QSPVGSSHEDFYDWFFRQVAQSGAHQ [N2CA-3-D6-IGFR] | 9 | 2.2 | 4 | 0.3 |  |
| FRTLAAQHDSFYDWFDRQVSGAAGER [H2CA-3-C11-IGFR] | 3.3 | 1.6 | 2.1 | 0.5 |  |
| SLEEEWAQIQEDLYGANHNESFYDWFERQL [S601] |  |  |  |  | 180 |
| PPLASDLDVQFYGWFVQQVSPPGRGG [H2CA-2-B3-IGFR] | 3.8 | 1 | 3.6 | 0.3 |  |
| EAASLGSQDRNFYDWFVRQVV [A6S-2-D11-IR] | 37.4 | 13.9 | 2.8 | 0.4 |  |
| TFYSCLASLLTGTPQPNRGPWERCR (disulfide 5-24 (inferred)) [20C-3-G3-IGFR] | 32.3 | 1.2 | 27 | < 0.1 |  |
| B1 | 4.1 | 1.1 | 3.6 | 0.3 |  |
| SQAGSAFYAWFDQVLRTVHSA [20E2Bβ-4-G6-IR] | 6.2 | 1.9 | 3.3 | 0.3 |  |
| Ac-SLEEEWAQIQEDLYGANHNESFYDWFERQL [S603] |  |  |  |  | 15 |
| GFREGNFYEWFQAQVT [E4Da-4-H2-IR] | 33.9 | 8.2 | 4.1 | 0.2 |  |
| TSEVQRRSQDNFYDWFVAQVA [A6S-3-E2-IR] | 24.7 | 9.8 | 2.5 | 0.4 |  |
| LEEEWAQIECEV[Tyr(3-I)]GRGCSGSLDESFYDWFERQLG (cysteine pairing not given here) [S590] |  |  |  |  | 58 |
| LEEEWAQVECEV[Tyr(3-I)]GRGCSGSLDESFYDWFERQLG (cysteine pairing not given here) [S588] |  |  |  |  | 180 |
| B2 |  |  |  |  | 130 |
| LRRQAPVEENFYDWFVRQVSGDRVGG [H2CA-3-D7-IGFR] | 3 | 0.8 | 3.7 | 0.3 |  |
| SLEEEWAQIQHELYGPAESESFYD[dW]FERQL [S596] |  |  |  |  | 45 |
| APDPSDFQEIFYDWFVRQVSRMPGGG [H2CA-1-A3-IGFR] | 3.8 | 0.8 | 5.1 | 0.2 |  |

| Binder | Ratio over Background [1] [fold] | Ratio over Background [2] [fold] | IGF-1R/IR Comparison [3] [ratio] | IR/IGF-1R Comparison [4] [ratio] | Kd [5] [pM] |
| --- | --- | --- | --- | --- | --- |
| SIEEEWAQIKCDVWGRGCPSY [S593] |  |  |  |  | 22 |
| VNQSGSIHENFYDWFERQVSHQRGVR [H2CA-4-F1O-IGFR] | 5.7 | 1 | 5.9 | 0.2 |  |
| GAPVDQLHEDFYDWFVRQVSQAATG [E2CA-2-B2-IGFR] | 3.4 | 1 | 3.5 | 0.3 |  |
| RCGRELYHSTFYDWFDRQVAGRTCPS [H2CA-1-A7-IGFR] | 2.2 | 0.6 | 3.7 | 0.3 |  |
| LGYQEPFQQNFYDWFVRQVSGAENAG [E2CA-3-E8-IGFR] | 6.3 | 2.2 | 2.9 | 0.3 |  |
| LEEEWAQIQREVWHS[dP]ASESF[dY]D[dW]FERQL [S595] |  |  |  |  | 620 |
| SLEEEWAQIECEVWGRCWHHSFYDWFERQL [S594] |  |  |  |  | 71 |
| GFREGSFYDWFQAQVT [E4Dα-2-D11-IR] | 11.1 | 3.3 | 3.4 | 0.3 |  |
| TLDGGSFEEQFYDWFVRQLSYRTNPD [H2CA-4-G11-IGFR] | 9.5 | 2.5 | 3.9 | 0.3 |  |
| VERSASSQDGNFYDWFVVQIR [A6S-2-D1-IR] | 30.6 | 12 | 2.6 | 0.4 |  |
| HLADGQFHEKFYDWFERQISSRCNDC [H2CA-3-E11-IGFR] | 2.2 | 1 | 2.2 | 0.5 |  |
| SLEEEWAQIQAEVYGNPNSESFYDWFERQL [S602] |  |  |  |  | 31 |
| SLEEEWAQIECEVYGRGCPSESFYDWFERQL (not fully specified; N-terminal acetyl) [S597] |  |  |  |  | 8.5 |
| QAVQPGFHEEFYDWFVRQVSTGVGGG [H2CA-4-H4-IGFR] | 4.1 | 1 | 4.2 | 0.2 |  |
| SSIGGGFHENFYDWFSRQLSQSPPLK [N2CA-4-F7-IGFR] | 3.2 | 0.8 | 4.1 | 0.2 |  |
| SSCDGAGHESFYEWFVRQVSGCRSV (not fully specified (bridges); cysteine pairing not given here) [H2CA-3-C8-IGFR] | 5.6 | 1.2 | 4.8 | 0.2 |  |
| AVRATRFDEAFYDWFVRQISDGQGNK [H2CA-4-86-GFR] | 7.3 | 1.1 | 6.4 | 0.2 |  |
| NYRRQVFNGNFYDWFDRQVFSLVTPG [142CA-3-D8-IGFR] | 7.2 | 1.8 | 4 | 0.3 |  |
| FYVQQWGHENFYDWFDRQVSQSGGAG [H2CA-4-F1-IGFR] | 3.5 | 0.9 | 3.8 | 0.3 |  |
